Laboratory results taken from patent US20230357348A1 (AstraZeneca / MedImmune, published 2023).
Starred links: 1 amine or outer side, 2 acyl side, 3 side chain; linkers in the order of their positions; H or OH if unused. Non-standard residues stand in square brackets, D forms with d. Groups on a side chain read outwards from the residue. No end group written: not given here. *: point of attachment. C18 diacid = O=C(O)CCCCCCCCCCCCCCCCC(=O)*; γGlu = O=C(O)[C@H](CCC(=O)[*:2])N[*:1]; αMeF = C[C@](N)(Cc1ccccc1)C(=O)O; AEEA = NCCOCCOCC(=O)O; Aib = CC(C)(N)C(=O)O

Key:
[1] = target: human glucagon receptor (hGCGR) (human, UniProt P47871 26-477); experiment: cell-based or functional assay
Sequence of human glucagon receptor (hGCGR) (P47871 26-477): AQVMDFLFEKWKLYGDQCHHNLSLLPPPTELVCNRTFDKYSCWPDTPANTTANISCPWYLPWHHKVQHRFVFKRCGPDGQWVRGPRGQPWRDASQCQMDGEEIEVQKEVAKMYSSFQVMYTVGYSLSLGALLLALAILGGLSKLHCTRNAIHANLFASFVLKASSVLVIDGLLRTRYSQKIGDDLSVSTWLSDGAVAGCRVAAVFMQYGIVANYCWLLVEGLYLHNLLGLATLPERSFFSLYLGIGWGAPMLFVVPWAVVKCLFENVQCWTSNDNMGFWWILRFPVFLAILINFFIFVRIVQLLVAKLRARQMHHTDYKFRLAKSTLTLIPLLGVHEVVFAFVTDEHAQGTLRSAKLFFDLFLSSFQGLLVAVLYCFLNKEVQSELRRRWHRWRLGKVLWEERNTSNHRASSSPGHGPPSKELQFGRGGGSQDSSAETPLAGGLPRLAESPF

[2] = target: human GLP-1 receptor (hGLP-1R) (human, UniProt P43220 24-463); experiment: cell-based or functional assay

B1: Peptide 34 (peptide)
peptide: H[Aib]QGTFTSDVSK[αMeF]LDSK([AEEA-AEEA-γGlu-C18 diacid])RAQDFVQWLL[Aib]E-OH
modifications: N-terminus assumed
SMILES: CC(C)C[C@H](NC(=O)[C@H](Cc1c[nH]c2ccccc12)NC(=O)[C@H](CCC(N)=O)NC(=O)[C@@H](NC(=O)[C@H](Cc1ccccc1)NC(=O)[C@H](CC(=O)O)NC(=O)[C@H](CCC(N)=O)NC(=O)[C@H](C)NC(=O)[C@H](CCCNC(=N)N)NC(=O)[C@H](CCCCNC(=O)COCCOCCNC(=O)COCCOCCNC(=O)CC[C@H](NC(=O)CCCCCCCCCCCCCCCCC(=O)O)C(=O)O)NC(=O)[C@H](CO)NC(=O)[C@H](CC(=O)O)NC(=O)[C@H](CC(C)C)NC(=O)[C@](C)(Cc1ccccc1)NC(=O)[C@H](CCCCN)NC(=O)[C@H](CO)NC(=O)[C@@H](NC(=O)[C@H](CC(=O)O)NC(=O)[C@H](CO)NC(=O)[C@@H](NC(=O)[C@H](Cc1ccccc1)NC(=O)[C@@H](NC(=O)CNC(=O)[C@H](CCC(N)=O)NC(=O)C(C)(C)NC(=O)[C@@H](N)Cc1c[nH]cn1)[C@@H](C)O)[C@@H](C)O)C(C)C)C(C)C)C(=O)N[C@@H](CC(C)C)C(=O)NC(C)(C)C(=O)N[C@@H](CCC(=O)O)C(=O)O
hGluc-R EC50 (pM) [1]: 161 pM
hGLP-1R EC50 (pM) [2]: 82.4 pM

B2: Peptide 35 (peptide)
peptide: H[Aib]QGTFTSDVSK[αMeF]LDTK([AEEA-AEEA-γGlu-C18 diacid])RAQDFVQWLL[Aib]T-OH
modifications: N-terminus assumed
SMILES: CC(C)C[C@H](NC(=O)[C@H](Cc1c[nH]c2ccccc12)NC(=O)[C@H](CCC(N)=O)NC(=O)[C@@H](NC(=O)[C@H](Cc1ccccc1)NC(=O)[C@H](CC(=O)O)NC(=O)[C@H](CCC(N)=O)NC(=O)[C@H](C)NC(=O)[C@H](CCCNC(=N)N)NC(=O)[C@H](CCCCNC(=O)COCCOCCNC(=O)COCCOCCNC(=O)CC[C@H](NC(=O)CCCCCCCCCCCCCCCCC(=O)O)C(=O)O)NC(=O)[C@@H](NC(=O)[C@H](CC(=O)O)NC(=O)[C@H](CC(C)C)NC(=O)[C@](C)(Cc1ccccc1)NC(=O)[C@H](CCCCN)NC(=O)[C@H](CO)NC(=O)[C@@H](NC(=O)[C@H](CC(=O)O)NC(=O)[C@H](CO)NC(=O)[C@@H](NC(=O)[C@H](Cc1ccccc1)NC(=O)[C@@H](NC(=O)CNC(=O)[C@H](CCC(N)=O)NC(=O)C(C)(C)NC(=O)[C@@H](N)Cc1c[nH]cn1)[C@@H](C)O)[C@@H](C)O)C(C)C)[C@@H](C)O)C(C)C)C(=O)N[C@@H](CC(C)C)C(=O)NC(C)(C)C(=O)N[C@H](C(=O)O)[C@@H](C)O
hGluc-R EC50 (pM) [1]: 335 pM
hGLP-1R EC50 (pM) [2]: 83.7 pM

B3: Peptide 36 (peptide)
peptide: H[Aib]QGTFTSDVSK[αMeF]LDSK([AEEA-AEEA-γGlu-C18 diacid])RARDFVQWLL[Aib]T-OH
modifications: N-terminus assumed
SMILES: CC(C)C[C@H](NC(=O)[C@H](Cc1c[nH]c2ccccc12)NC(=O)[C@H](CCC(N)=O)NC(=O)[C@@H](NC(=O)[C@H](Cc1ccccc1)NC(=O)[C@H](CC(=O)O)NC(=O)[C@H](CCCNC(=N)N)NC(=O)[C@H](C)NC(=O)[C@H](CCCNC(=N)N)NC(=O)[C@H](CCCCNC(=O)COCCOCCNC(=O)COCCOCCNC(=O)CC[C@H](NC(=O)CCCCCCCCCCCCCCCCC(=O)O)C(=O)O)NC(=O)[C@H](CO)NC(=O)[C@H](CC(=O)O)NC(=O)[C@H](CC(C)C)NC(=O)[C@](C)(Cc1ccccc1)NC(=O)[C@H](CCCCN)NC(=O)[C@H](CO)NC(=O)[C@@H](NC(=O)[C@H](CC(=O)O)NC(=O)[C@H](CO)NC(=O)[C@@H](NC(=O)[C@H](Cc1ccccc1)NC(=O)[C@@H](NC(=O)CNC(=O)[C@H](CCC(N)=O)NC(=O)C(C)(C)NC(=O)[C@@H](N)Cc1c[nH]cn1)[C@@H](C)O)[C@@H](C)O)C(C)C)C(C)C)C(=O)N[C@@H](CC(C)C)C(=O)NC(C)(C)C(=O)N[C@H](C(=O)O)[C@@H](C)O
hGluc-R EC50 (pM) [1]: 278 pM
hGLP-1R EC50 (pM) [2]: 43.1 pM

B4: Peptide 37 (peptide)
peptide: H[Aib]QGTFTSDVSK[αMeF]LDSK([AEEA-AEEA-γGlu-C18 diacid])RAEDFVQWLL[Aib]T-OH
modifications: N-terminus assumed
SMILES: CC(C)C[C@H](NC(=O)[C@H](Cc1c[nH]c2ccccc12)NC(=O)[C@H](CCC(N)=O)NC(=O)[C@@H](NC(=O)[C@H](Cc1ccccc1)NC(=O)[C@H](CC(=O)O)NC(=O)[C@H](CCC(=O)O)NC(=O)[C@H](C)NC(=O)[C@H](CCCNC(=N)N)NC(=O)[C@H](CCCCNC(=O)COCCOCCNC(=O)COCCOCCNC(=O)CC[C@H](NC(=O)CCCCCCCCCCCCCCCCC(=O)O)C(=O)O)NC(=O)[C@H](CO)NC(=O)[C@H](CC(=O)O)NC(=O)[C@H](CC(C)C)NC(=O)[C@](C)(Cc1ccccc1)NC(=O)[C@H](CCCCN)NC(=O)[C@H](CO)NC(=O)[C@@H](NC(=O)[C@H](CC(=O)O)NC(=O)[C@H](CO)NC(=O)[C@@H](NC(=O)[C@H](Cc1ccccc1)NC(=O)[C@@H](NC(=O)CNC(=O)[C@H](CCC(N)=O)NC(=O)C(C)(C)NC(=O)[C@@H](N)Cc1c[nH]cn1)[C@@H](C)O)[C@@H](C)O)C(C)C)C(C)C)C(=O)N[C@@H](CC(C)C)C(=O)NC(C)(C)C(=O)N[C@H](C(=O)O)[C@@H](C)O
hGluc-R EC50 (pM) [1]: 2750 pM
hGLP-1R EC50 (pM) [2]: 68.6 pM

B5: Peptide 38 (peptide)
peptide: H[Aib]QGTFTSDVSK[αMeF]LDSK([AEEA-AEEA-γGlu-C18 diacid])RAQDFVEWLL[Aib]T-OH
modifications: N-terminus assumed
SMILES: CC(C)C[C@H](NC(=O)[C@H](Cc1c[nH]c2ccccc12)NC(=O)[C@H](CCC(=O)O)NC(=O)[C@@H](NC(=O)[C@H](Cc1ccccc1)NC(=O)[C@H](CC(=O)O)NC(=O)[C@H](CCC(N)=O)NC(=O)[C@H](C)NC(=O)[C@H](CCCNC(=N)N)NC(=O)[C@H](CCCCNC(=O)COCCOCCNC(=O)COCCOCCNC(=O)CC[C@H](NC(=O)CCCCCCCCCCCCCCCCC(=O)O)C(=O)O)NC(=O)[C@H](CO)NC(=O)[C@H](CC(=O)O)NC(=O)[C@H](CC(C)C)NC(=O)[C@](C)(Cc1ccccc1)NC(=O)[C@H](CCCCN)NC(=O)[C@H](CO)NC(=O)[C@@H](NC(=O)[C@H](CC(=O)O)NC(=O)[C@H](CO)NC(=O)[C@@H](NC(=O)[C@H](Cc1ccccc1)NC(=O)[C@@H](NC(=O)CNC(=O)[C@H](CCC(N)=O)NC(=O)C(C)(C)NC(=O)[C@@H](N)Cc1c[nH]cn1)[C@@H](C)O)[C@@H](C)O)C(C)C)C(C)C)C(=O)N[C@@H](CC(C)C)C(=O)NC(C)(C)C(=O)N[C@H](C(=O)O)[C@@H](C)O
hGluc-R EC50 (pM) [1]: 441 pM
hGLP-1R EC50 (pM) [2]: 75.6 pM
